Laboratory results published in patent US20240293512A1 (HANMI PHARM, published 2024).
Bridge positions count the residues as written; N and C are the ends. Square brackets hold non-standard residues; d marks the D form. Ends that are not written are not given here. Aib = CC(C)(N)C(=O)O

Tests used:
Experiment in all cases: cell-based or functional assay
human GIP receptor = target: T1, human GIP receptor (human, UniProt P48546 22-466)
T1 sequence (looked up): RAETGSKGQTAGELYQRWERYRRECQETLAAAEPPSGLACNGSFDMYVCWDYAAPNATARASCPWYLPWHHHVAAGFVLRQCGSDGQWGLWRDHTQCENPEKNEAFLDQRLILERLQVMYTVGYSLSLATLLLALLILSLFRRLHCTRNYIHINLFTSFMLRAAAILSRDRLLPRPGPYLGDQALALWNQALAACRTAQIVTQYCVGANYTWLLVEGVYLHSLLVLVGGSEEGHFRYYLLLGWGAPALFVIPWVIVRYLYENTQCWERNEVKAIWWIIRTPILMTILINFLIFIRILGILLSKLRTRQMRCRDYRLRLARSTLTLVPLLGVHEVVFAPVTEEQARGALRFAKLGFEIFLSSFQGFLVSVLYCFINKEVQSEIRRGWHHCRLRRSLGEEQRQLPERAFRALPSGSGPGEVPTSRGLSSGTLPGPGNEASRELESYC

human GLP-1 receptor = human GLP-1 receptor (human, UniProt P43220 24-463)
human GCG receptor = human GCG receptor (human, UniProt P47871 26-477)
human GCG receptor, sequence (P47871 26-477): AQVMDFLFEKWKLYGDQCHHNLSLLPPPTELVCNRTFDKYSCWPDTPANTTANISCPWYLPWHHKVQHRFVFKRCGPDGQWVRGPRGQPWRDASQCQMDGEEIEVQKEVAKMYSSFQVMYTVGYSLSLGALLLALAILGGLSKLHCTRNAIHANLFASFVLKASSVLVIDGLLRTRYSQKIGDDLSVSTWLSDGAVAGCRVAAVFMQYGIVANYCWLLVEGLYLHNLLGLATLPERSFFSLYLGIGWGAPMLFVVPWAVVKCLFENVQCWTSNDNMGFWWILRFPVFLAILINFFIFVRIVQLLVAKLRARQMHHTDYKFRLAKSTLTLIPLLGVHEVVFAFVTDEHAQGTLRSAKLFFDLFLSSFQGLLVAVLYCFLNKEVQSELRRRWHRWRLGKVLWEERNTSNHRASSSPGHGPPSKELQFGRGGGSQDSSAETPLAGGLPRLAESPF

B1: triple agonist of SEQ ID NO: 28 (peptide)
peptide: H[Aib]QGTFTSDYSKYLDEKRAQEFVCWLLAQKGKKNDWKHNIT
In vitro activity compared with native peptide (%) vs GIP (cAMP EC50) (human GIP receptor): < 0.1% | In vitro activity compared with native peptide (%) vs GLP-1 (cAMP EC50) (human GLP-1 receptor): 17.2% | In vitro activity compared with native peptide (%) vs Glucagon (cAMP EC50) (human GCG receptor): 1.6%

B2: triple agonist of SEQ ID NO: 33 (peptide)
peptide: H[Aib]QGTFTSDYSIAMDEIHQKDFVNWLLAQKC
modifications: bridge 16-20
In vitro activity compared with native peptide (%) vs GIP (cAMP EC50) (human GIP receptor): 10.4% | In vitro activity compared with native peptide (%) vs GLP-1 (cAMP EC50) (human GLP-1 receptor): 24.5% | In vitro activity compared with native peptide (%) vs Glucagon (cAMP EC50) (human GCG receptor): < 0.1%

B3: triple agonist of SEQ ID NO: 26 (peptide)
peptide: H[Aib]QGTFTSDCSKYLDSRAAQDFVQWLLDGGPSSGAPPPS
In vitro activity compared with native peptide (%) vs GIP (cAMP EC50) (human GIP receptor): < 0.1% | In vitro activity compared with native peptide (%) vs GLP-1 (cAMP EC50) (human GLP-1 receptor): 64.5% | In vitro activity compared with native peptide (%) vs Glucagon (cAMP EC50) (human GCG receptor): 0.2%

B4: triple agonist of SEQ ID NO: 29 (peptide)
peptide: H[Aib]QGTFTSDYSKYLDEKAAKEFVQWLLNTC
modifications: bridge 16-20
In vitro activity compared with native peptide (%) vs GIP (cAMP EC50) (human GIP receptor): < 0.1% | In vitro activity compared with native peptide (%) vs GLP-1 (cAMP EC50) (human GLP-1 receptor): 38.5% | In vitro activity compared with native peptide (%) vs Glucagon (cAMP EC50) (human GCG receptor): 6%

B5: triple agonist of SEQ ID NO: 30 (peptide)
peptide: H[Aib]QGTFTSDYSKYLDEKAQKEFVQWLLDTC
modifications: bridge 16-20
In vitro activity compared with native peptide (%) vs GIP (cAMP EC50) (human GIP receptor): 0.8% | In vitro activity compared with native peptide (%) vs GLP-1 (cAMP EC50) (human GLP-1 receptor): 142% | In vitro activity compared with native peptide (%) vs Glucagon (cAMP EC50) (human GCG receptor): 0.7%

B6: triple agonist of SEQ ID NO: 31 (peptide)
peptide: H[Aib]QGTFTSDYSKYLDEKACKEFVQWLLAQ
modifications: bridge 16-20
In vitro activity compared with native peptide (%) vs GIP (cAMP EC50) (human GIP receptor): 2.4% | In vitro activity compared with native peptide (%) vs GLP-1 (cAMP EC50) (human GLP-1 receptor): 135% | In vitro activity compared with native peptide (%) vs Glucagon (cAMP EC50) (human GCG receptor): 2.2%

B7: triple agonist of SEQ ID NO: 32 (peptide)
peptide: H[Aib]QGTFTSDYSKYLDEKACKDFVQWLLDGGPSSGAPPPS
modifications: bridge 16-20
In vitro activity compared with native peptide (%) vs GIP (cAMP EC50) (human GIP receptor): 8.8% | In vitro activity compared with native peptide (%) vs GLP-1 (cAMP EC50) (human GLP-1 receptor): 151% | In vitro activity compared with native peptide (%) vs Glucagon (cAMP EC50) (human GCG receptor): 1.7%

B8: triple agonist of SEQ ID NO: 27 (peptide)
peptide: H[Aib]QGTFTSDYSKYLDERACQDFVQWLLDQGGPSSGAPPPS
In vitro activity compared with native peptide (%) vs GIP (cAMP EC50) (human GIP receptor): 0.9% | In vitro activity compared with native peptide (%) vs GLP-1 (cAMP EC50) (human GLP-1 receptor): 83.1% | In vitro activity compared with native peptide (%) vs Glucagon (cAMP EC50) (human GCG receptor): 0.8%
